Target: HOXB13 DNA binding domain fragment (residues 209-283) (human, UniProt Q92826 209-283)
Experiment: crystal structure

HOXB13 DNA binding domain fragment (residues 209-283), sequence (Q92826 209-283): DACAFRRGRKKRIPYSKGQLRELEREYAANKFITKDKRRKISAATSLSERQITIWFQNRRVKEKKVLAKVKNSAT

B1: MEIS1 DNA binding domain fragment (residues 279-333) (domain or fragment, human, UniProt O00470 279-333, looked up)
chain: FPKVATNIMRAWLFQHLTHPYPSEEQKKQLAQDTGLTILQVNNWFINARRRIVQP
binding result: binds

Reference: article PMC8009048 (Science (New York, N.Y.), 2017)
